This passage reports Kd results from article PMC8847413.

The target in assay [1] is prefusion-stabilized S protein (S trimer) of SARS-CoV-2 G614 variant (SARS-CoV-2) (UniProt P0DTC2). Kind of assay: BLI.
Assay [2] has as its target prefusion-stabilized trimeric S protein (S ectodomain) of SARS-CoV-2 Delta (B.1.617.2) variant (SARS-CoV-2) (UniProt P0DTC2). Description: BLI.

human ACE2 peptidase domain (PD), sequence (Q9BYF1 17-615): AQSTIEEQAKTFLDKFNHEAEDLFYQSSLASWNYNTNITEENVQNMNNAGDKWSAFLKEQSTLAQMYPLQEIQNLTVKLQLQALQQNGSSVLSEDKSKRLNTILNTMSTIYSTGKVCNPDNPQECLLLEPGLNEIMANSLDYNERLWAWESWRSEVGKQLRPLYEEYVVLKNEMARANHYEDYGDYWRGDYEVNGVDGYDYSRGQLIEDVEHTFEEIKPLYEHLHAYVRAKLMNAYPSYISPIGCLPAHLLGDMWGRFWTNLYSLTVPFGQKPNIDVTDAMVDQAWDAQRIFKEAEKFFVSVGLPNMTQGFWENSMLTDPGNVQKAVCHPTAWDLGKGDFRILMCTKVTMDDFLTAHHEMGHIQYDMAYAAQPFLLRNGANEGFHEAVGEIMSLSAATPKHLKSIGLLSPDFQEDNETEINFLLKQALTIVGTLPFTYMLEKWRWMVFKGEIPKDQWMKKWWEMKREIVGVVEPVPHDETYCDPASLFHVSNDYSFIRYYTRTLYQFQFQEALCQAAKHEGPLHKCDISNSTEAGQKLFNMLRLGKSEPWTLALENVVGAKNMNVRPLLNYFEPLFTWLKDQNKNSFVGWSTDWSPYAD

As usually defined, the Kd is the equilibrium constant for the complex coming apart. A high value points to weaker binding. “human ACE2 peptidase domain (PD) (from UniProt Q9BYF1) (domain or fragment)”: the results for the dissociation constant Kd in assay [1] and in assay [2] were 87 nM and 41 nM, respectively.
